Read-outs that look alike come from different tables or passages of the source.
Key:
[1] = target: human ROR1 (hROR1) on the cell surface (human) (UniProt Q01973); assay: cell-based or functional assay
[2] = target: human ROR1 (hROR1) on the cell surface (human) (UniProt Q01973); assay: cell-based or functional assay; remark: listed apart in the source

Chain of human ROR1 (hROR1) on the cell surface (human) (Q01973 30-937): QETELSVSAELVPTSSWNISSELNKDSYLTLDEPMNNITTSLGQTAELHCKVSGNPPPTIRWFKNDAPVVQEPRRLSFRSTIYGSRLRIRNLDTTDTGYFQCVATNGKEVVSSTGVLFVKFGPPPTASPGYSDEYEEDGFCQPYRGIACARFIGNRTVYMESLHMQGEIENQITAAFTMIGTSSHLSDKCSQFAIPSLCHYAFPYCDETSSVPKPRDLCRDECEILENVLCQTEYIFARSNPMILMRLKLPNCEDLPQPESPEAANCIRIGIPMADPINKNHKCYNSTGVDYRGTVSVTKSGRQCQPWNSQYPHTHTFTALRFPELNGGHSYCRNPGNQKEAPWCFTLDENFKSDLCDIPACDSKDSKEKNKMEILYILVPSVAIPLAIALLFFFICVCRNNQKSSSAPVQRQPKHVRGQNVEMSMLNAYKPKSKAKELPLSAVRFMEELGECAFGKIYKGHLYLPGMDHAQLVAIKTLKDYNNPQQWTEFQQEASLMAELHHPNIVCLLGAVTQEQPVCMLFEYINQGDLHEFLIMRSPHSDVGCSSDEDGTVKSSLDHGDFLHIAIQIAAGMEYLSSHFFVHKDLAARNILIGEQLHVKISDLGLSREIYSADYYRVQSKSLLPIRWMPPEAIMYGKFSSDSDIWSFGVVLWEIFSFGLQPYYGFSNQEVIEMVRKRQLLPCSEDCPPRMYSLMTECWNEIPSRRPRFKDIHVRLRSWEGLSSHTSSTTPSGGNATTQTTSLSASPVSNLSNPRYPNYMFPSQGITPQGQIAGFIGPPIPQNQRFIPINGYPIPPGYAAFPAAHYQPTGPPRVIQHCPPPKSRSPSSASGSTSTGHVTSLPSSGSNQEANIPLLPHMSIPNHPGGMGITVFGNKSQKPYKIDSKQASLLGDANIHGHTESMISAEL

Row | Binder | IC50, in vitro cell killing of A549 cells [1] | IC50, in vitro cell killing of HS 578T cells [1] | IC50, in vitro cell killing of HT-29 cells [1] | IC50, in vitro cell killing of hROR1-overexpressing EMT-6 cells [1] | IC50, in vitro cell killing of 697 cells [2] | IC50, in vitro cell killing of 697 cells [1] | IC50, in vitro cell killing of MDA-MB-468 cells [1]
1 | XBR1-402-G5-PNU (antibody, V domains shown, EDA-PNU-159682 derivative on the C-terminal glycine (G5-PNU joined by sortase)) VH: QEQQKESGGGLFKPTDTLTLTCTASGFDISSYYMSWVRQAPGNGLEWIGAIGISGNAYYASWAKSRSTITRNTNLNTVTLKMTSLTAADTATYFCARDHPTYGMDLWGPGTLVTVSS VL: SYELTQLPSVSVSLGQTARITCEGNNIGSKAVHWYQQKPGLAPGLLIYDDDERPSGVPDRFSGSNSGDTATLTISGAQAGDEADYYCQVWDSSAYVFGGGTQLTVTG | 177 µg/mL | 1.4 µg/mL | 23.3 µg/mL | 1.7 nM |  |  | 
2 | R12-G5-PNU (antibody, V domains shown, EDA-PNU-159682 derivative on the C-terminal glycine (G5-PNU joined by sortase)) VH: QEQLVESGGRLVTPGGSLTLSCKASGFDFSAYYMSWVRQAPGKGLEWIATIYPSSGKTYYATWVNGRFTISSDNAQNTVDLQMNSLTAADRATYFCARDSYADDGALFNIWGPGTLVTISS VL: ELVLTQSPSVSAALGSPAKITCTLSSAHKTDTIDWYQQLQGEAPRYLMQVQSDGSYTKRPGVPDRFSGSSSGADRYLIIPSVQADDEADYYCGADYIGGYVFGGGTQLTVTG |  | 3.5 µg/mL | 10.3 µg/mL |  | 0.873 µg/mL | 100 nM | 3.96 µg/mL
3 | Top43-G5-PNU (adc204) (antibody, V domains shown, EDA-PNU-159682 derivative on the C-terminal glycine (G5-PNU joined by sortase)) VH: QSLEESGGRLVTPGTPLTLTCTVSGFSLSSYWMSWVRQAPGKGLEWIGAIYGSGNTYYASWAKGRFTISKTSTTVDLKITSPTTEDTATYFCARDVHSTATDLWGPGTLVTISS VL: SYELTQLPSVSVSLGQTARITCGGNNIGSKAVNWYQQKPGLAPGLLIYNDDERPSGVPDRFSGSNSGDTATLTISGAQAGDEADYYCQLWDSSAGAYVFGGGTQLTVTG | 109 µg/mL | 0.707 µg/mL | 23.1 µg/mL |  |  | 0.314 µg/mL | 0.463 µg/mL
4 | ERR1-301-G5-PNU (adc200) (antibody, V domains shown, EDA-PNU-159682 derivative on the C-terminal glycine (G5-PNU joined by sortase)) VH: QEQLEESGGGLVTPGGSLTLTCTASGFTISTYHMSWVRQAPGKGLEWIGSIYAGSGSTYYASWVNGRFTISSNTTQNTVSLQMNSLTVADTATYFCARDHPSYGMDLWGPGTLVTVSS VL: SYELTQLPSVSVSLGQTARITCGGNSIGSKAVNWYQQKPGLAPGLLIYDDDERPSGVPDRFSASNSGDTATLTISGAQAEDEADYYCQLWDSSAVAYVFGGGTQLTVTG |  |  |  |  |  | 0.592 µg/mL | 
